Consider four molecules from patent US20160002357A1 (Pfizer, published 2016).

The target in assay [1] is T1, cynomolgus monkey P-cadherin ECD (cynomolgus monkey).
T1 construct: extracellular domain; also called cyno P-cadherin ECD; Cyno P-cadherin
Briefly: SPR Biacore. As to the method: Binding affinity of EK-DART proteins to P-cadherin and CD3 was analyzed by SPR using a BIACORE® 3000 biosensor (GE Healthcare). The antigens huCD3εδ and either human P-cadherin-Fc or human/cynomolgus monkey/murine P-cadherin-ECD were immobilized on the CM-5 sensor chip by amine coupling kit as recommended by the manufacturer. […] All EK-DART proteins in Tables 15 and 16 comprise CD3-2.
All EK-DART proteins in Table 17 comprise CD3-2.

Assay [2] has as its target T2, P-cadherin-ECD1-3-Fc protein (human P-cadherin-Fc) (human, UniProt P22223 108-440).
T2 construct: Construct was expressed with signal peptide and pro-peptide (PACE co-transfected to process the propeptide); not shown: hinge and CH2 and CH3 domains of human IgG1
Briefly: phage scFv ELISA, coated P-cadherin-ECD1-3-Fc. As to the method:
(§1) P-cadherin-ECD1-3-Fc protein or negative control protein was coated overnight at 4° C. on 96-well Nunc Maxisorp® plates (Thermo Fisher Scientific, Madison, Conn.) at a concentration of 2 μg/mL in PBS+Ca²⁺ and Mg²⁺. Plates were washed three times using PBS+Ca²⁺ and Mg²⁺ and blocked for 1 hour at room temperature in 3% milk/PBS+Ca²⁺ and Mg²⁺. Phage samples prepared as described above were added to the blocked plates for 1 hour at room temperature. Plates were washed three times with PBS+Ca²⁺ and Mg²⁺ prior to the addition of secondary antibody (anti M13-HRP 1:2000, GE Healthcare, Piscataway, N.J.). Plates were incubated for a further 1 hour at room temperature and washed six times with PBS+Ca²⁺ and Mg²⁺. Signal was developed using TMB (SurModics, Eden Prairie, Minn.), the reaction stopped with H₂SO₄ and the absorbance read at 450 nm on an EnVision® plate reader (Perkin Elmer, Waltham, Mass.).

Assay [3] has as its target T2, P-cadherin-ECD1-3-Fc protein (human …). Briefly: phage scFv ELISA, coated P-cadherin-ECD1-3-Fc. As to the method:
ScFvs may be expressed on the surface of a phage particle. To prepare phage expressing scFv on their surface, 96-deep well plates containing 1 mL 2× TY media with 2% glucose/100 μg/mL ampicillin were inoculated with 0.5-1 μL from thawed glycerol stocks (one clone per well) using the QPix™2 Colony picker (Molecular Devices, Sunnyvale Calif.) and grown at 37° C. (900 rpm) for ˜4 hours. Next, 5 μL of a 1:29 dilution of helper phage (8.3×10¹³ pfu) was added and the plates and incubated for a further 30 minutes at 37° C. with no shaking then 1 hour at 300 rpm. Plates were centrifuged and the media was replaced with a kanamycin/non-glucose containing media (2× TY with 50 μg/mL kanamycin and 100 μg/mL ampicillin). Plates were grown overnight at 25° C. (900 rpm), and phage were harvested in the supernatant following centrifugation.
as §1
This is another data set of the same source.

Where two headings read alike, the source gives them in different places.

T2 sequence (P22223 108-440): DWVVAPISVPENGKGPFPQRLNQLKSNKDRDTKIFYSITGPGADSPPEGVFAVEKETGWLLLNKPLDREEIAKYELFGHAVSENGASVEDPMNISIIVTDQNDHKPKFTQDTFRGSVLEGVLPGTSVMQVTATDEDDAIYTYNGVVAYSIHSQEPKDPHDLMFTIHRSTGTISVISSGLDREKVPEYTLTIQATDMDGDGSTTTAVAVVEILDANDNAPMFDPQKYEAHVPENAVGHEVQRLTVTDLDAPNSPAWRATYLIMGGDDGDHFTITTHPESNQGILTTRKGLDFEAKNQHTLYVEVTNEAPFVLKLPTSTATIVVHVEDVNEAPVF

B1: 154 EK-DART (bispecific antibody)
chain 1: QSVLTQPPSVSAAPGQKVTISCSGSSSNIGNNYVSWYQQLPGTAPKLLIYDNNKRPSGIPDRFSGSKSGTSATLGITGLQTGDEADYYCGTWDSSLSSYVFGTGTKVTVLGGGSGGGGEVQLVESGGGLVQPGGSLRLSCAASGFTFNTYAMNWVRQAPGKGLEWVARIRSKYNNYATYYADSVKDRFTISRDDSKNSLYLQMNSLKTEDTAVYYCVRHGNFGNSYVSWFAYWGQGTLVTVSSGGCGGGKVAALKEKVAALKEKVAALKEKVAALKE
chain 2: QAVVTQEPSLTVSPGGTVTLTCRSSTGAVTTSNYANWVQQKPGQAPRGLIGGTNKRAPWTPARFSGSLLGGKAALTITGAQAEDEADYYCALWYSNLWVFGGGTKLTVLGGGGSGGGGEVQLVQSGAEVKKPGASVKVSCKASGYTFTSYGISWVRQAPGQGLEWMGWISAYNGNTNYAQKLQGRVTMTTDTSTSTAYMELRSLRSDDTAVYYCATIDTATAFDIWGQGTMVTVSSGGCGGGEVAALEKEVAALEKEVAALEKEVAALEK
With B1, in assay [1], the affinity, expressed as Kd, was 3.93 nM; the koff is 0.0039 s⁻¹; the kon is 1.04e+06 M⁻¹ s⁻¹.

B2: 165 EK-DART (bispecific antibody)
chain 1: QSVLTQPPSVSAAPGQKVTISCSGSSSNIGNNYVSWYQQLPGTAPKLLIYDNNKRPSGIPDRFSGSKSGTSATLGITGLQAGDEADYYCGTWDSSLSAYVFGTGTKVTVLGGGSGGGGEVQLVESGGGLVQPGGSLRLSCAASGFTFNTYAMNWVRQAPGKGLEWVARIRSKYNNYATYYADSVKDRFTISRDDSKNSLYLQMNSLKTEDTAVYYCVRHGNFGNSYVSWFAYWGQGTLVTVSSGGCGGGKVAALKEKVAALKEKVAALKEKVAALKE
chain 2: QAVVTQEPSLTVSPGGTVTLTCRSSTGAVTTSNYANWVQQKPGQAPRGLIGGTNKRAPWTPARFSGSLLGGKAALTITGAQAEDEADYYCALWYSNLWVFGGGTKLTVLGGGGSGGGGEVQLVQSGAEVKKPGASVKVSCKASGYTFTSYGISWVRQAPGQGLEWMGWISAYNGNTNYAQKLQGRVTMTTDTSTSTAYMELRSLRSDDTAVYYCATIDTANAFDIWGQGTMVTVSSGGCGGGEVAALEKEVAALEKEVAALEKEVAALEK
In assay [1], B2 yielded a Kd of 0.37 nM, a koff of 0.000309 s⁻¹ and a kon of 834000 M⁻¹ s⁻¹.

B3: anti-P-cadherin scFv 153 (parental clone 153), displayed on phage (scFv, V domains shown)
VH: EVQLVQSGAEVKKPGASVKVSCKASGYTFTSYGISWVRQAPGQGLEWMGWISAYNGNTNYAQKLQGRVTMTTDTSTSTAYMELRSLRSDDTAVYYCATIDTANAFGIWGQGTMVTVSS
VL: QSVLTQPPSVSAAPGQKVTISCSGSSSNIGNNYVSWYQQLPGTAPKLLIYDNNKRPSGIPDRFSGSKSGTSATLGITGLQTGDEADYYCGTWDSSLSGVVFGGGTKLTVL
notes: scFv expressed on the surface of phage
As to B3, in assay [2], the “% of binding of Clone #153 to human P-cadherin-Fc” value was 100%, the “Human P-cadherin-Fc binding (OD450)” value came to 1.32 OD450 and the “Z Score” value came to 0. Moreover, in assay [3], the “% of binding of Clone #153 to human P-cadherin-Fc” value was 100%, the “Human P-cadherin-Fc binding (OD450)” value is 1.32 OD450 and the “Z Score” value turned out to be 0.

B4: anti-P-cadherin scFv 153 alanine-mutant L3.11-Ala (scFv, V domains shown)
VH: EVQLVQSGAEVKKPGASVKVSCKASGYTFTSYGISWVRQAPGQGLEWMGWISAYNGNTNYAQKLQGRVTMTTDTSTSTAYMELRSLRSDDTAVYYCATIDTANAFGIWGQGTMVTVSS
VL: QSVLTQPPSVSAAPGQKVTISCSGSSSNIGNNYVSWYQQLPGTAPKLLIYDNNKRPSGIPDRFSGSKSGTSATLGITGLQTGDEADYYCGTWDSSLSGVAFGGGTKLTVL
notes: scFv on phage
With B4, in assay [3], the “% of binding of Clone #153 to human P-cadherin-Fc” value turned out to be 104%, the “Human P-cadherin-Fc binding (OD450)” value is 1.38 OD450 and the “Z Score” value is 0.1.
